Assay results from patent publication US20220396627A1 (VERSEAU THERAPEUTICS, published 2022).
Residue numbers refer to the chain shown, from its start.

B1: 12G23 (antibody, V domains shown)
VH: EVQLQQSGPELVRPGASVKMSCKASGYTFTDYNMHWVKQSHGKSLEWIGYINPNNGGTSYNQKFKGKATLTVNKSSSTAYMELRSLTSDDSAVYYCAREGYGNYPFYWGQGTTLTVSS
VL: DIVLTQSPASLAVSLGQRVTISCRGSESVEYYGTSLMQWYQQKPGQPPKLLIYAASNVESGVPARFSGSGSGTDFSLNIHPVEEDDIAMYFCQQDRKVPYTFGGGTKLEIK
B2: 13O18 (antibody, V domains shown)
VH: B1 VH with S59T, K63N, D89E
VL: B1 VL with G25A, Y90F
B3: 9D21 (antibody, V domains shown)
VH: QVQLKESGPGLVAPSQSLSITCTVSGFSLTRYGVSWVRQPPGKGLEWLGVIWGDGSTNYHSALISRLSISKDNSKSQVFLKLNSLQTDDTATYYCARPYYGFFDYWGQGTTLTVSS
VL: SIVMTQTPKFLLVSAGDRVTITCKASQSVSNAVAWYQQKPGQSPKMLIYYASNRYTGVPDRFTGSGYGTDFTFTISTVQAEDLAVYFCQQDYSSPYTFGGGTKLEIK
B4: 12P18 (antibody, V domains shown)
VH: QVQLQQSGAELVRPGASVTLSCKASGYTFTDYEMHWVKQTPVHGLEWIGAIDPEAGGTAYNRKFKGKAILTADKSSSTAYMELRSLTSEDSAVYYCTNLGRDYWGQGTTLTVSS
VL: DIVMSQSPSSLAVSVGEKVTMSCKSSQSLLYSSTQKNYLAWYQQKPGQSPKRLIYWASTRESGVPDRFTGSGSGTDFTLTISSVKAEDLAVYYCQQYYSYWTFGGGTKLEIK
B5: 12L19 (antibody, V domains shown)
VH: QVTLKESGPGILQPSQTLSLTCSFSGFSLNTFGMAVGWIRQPSGKGLEWLAHIWWDDSYYFNPALRSRLTISKDTSKNQVFLTIANVDTADTATYYCTRIPDDYDDYAMDYWGQGTSVTVSS
VL: DVVMTQTPLSLPVSLGDQASISCRSSQSLVHSNGNTYLHWYLQKPGQSPKLLVYKVSNRFSGVPDRFSGSGSGTDFTLKISRVEAEDLGVYFCSQNTHIPYTFGGGTKLEIK
B6: 9C15 (antibody, V domains shown)
VH: QVQLQQPGAELVKPGASVKMSCKASGYTFTSYWITWLNQRPGQGLEWIGDIYPGSGGTNYNERFKSKATLTVDTSSSTAYMQLSSLTSEDSAVYYCARSGGWAMDYWGQGTSVTVSS
VL: DIQMTQTTSSLSASLGDRVTISCRASQDISNYLNWYQQKPDGTVKLLIYYKSGLHSGVPSRFSGSGSGTDYSLTISNLEQEDIATYFCQQGNTLPFTFGGGTKLEIK
B7: 3L02 (antibody, V domains shown)
VH: DVQLQESGPGMVKPSQSLSLTCTVTGYSITSGYDWHWIRHFPGNKLEWMGYISYSAGTNYNPSLKSRISITHDTSKNHFFLKLNSVTTEDTATYYCAREGLTAYWYFDVWGTGTTVTVSS
VL: DIVMTQSQKFMSTSVGDRVSVTCKASQTVGTNVAWYQQKPGQSPKPLIYSASYRYSGVPDRFTGSGSGTDFTLTISNVQSEDLAEYFCQQYDSFPLTFGSGTKLEIK

Target: T1, Human Siglec-9-Fc (recombinant human Siglec-9 extracellular domain Q18-G348 fused to human IgG1 Fc) (human)
T1 sequence (chain, as listed by the source limits assumed): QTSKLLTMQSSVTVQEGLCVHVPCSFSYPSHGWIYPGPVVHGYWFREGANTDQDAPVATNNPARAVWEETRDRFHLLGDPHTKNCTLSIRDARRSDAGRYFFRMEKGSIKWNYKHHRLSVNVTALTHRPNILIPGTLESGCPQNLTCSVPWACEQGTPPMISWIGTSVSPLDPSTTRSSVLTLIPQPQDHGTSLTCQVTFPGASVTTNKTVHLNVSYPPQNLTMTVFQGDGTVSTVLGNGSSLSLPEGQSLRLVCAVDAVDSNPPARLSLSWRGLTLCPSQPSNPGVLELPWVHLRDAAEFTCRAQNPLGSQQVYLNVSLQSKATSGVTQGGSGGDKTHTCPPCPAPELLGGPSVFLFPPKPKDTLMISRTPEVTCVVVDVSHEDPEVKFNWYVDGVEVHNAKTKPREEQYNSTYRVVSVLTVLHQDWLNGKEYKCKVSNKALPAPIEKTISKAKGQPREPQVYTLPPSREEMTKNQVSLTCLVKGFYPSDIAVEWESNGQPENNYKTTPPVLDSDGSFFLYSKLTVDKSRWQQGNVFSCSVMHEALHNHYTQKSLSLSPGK
Test: BLI binning, hSiglec-9-Fc on AHC sensor; competitor bound first (row): 2F15
Protocol: (§1) Epitopic diversity of functional antibodies was further assessed by antibody cross-blocking experiments, performed on a ForteBio Octet Red384 system. All samples were prepared in black 384-well flat bottom plates from (Greiner, Cat. #781209) with a working volume of 120 uL and diluted in kinetics buffer (1×DPBS containing 0.1% bovine serum albumin, 0.05% sodium azide, and 0.02% Tween®20). Anti-SIGLEC-9 antibodies and human Siglec-9-Fc protein were diluted in kinetics buffer to a final concentration of 10 ug/mL. Anti-human IgG Fc capture (AHC) biosensors (ForteBio, Cat. #18-5060) were rehydrated prior to the assay in kinetics buffer for 10 minutes then equilibrated in kinetics buffer for 60 seconds. Recombinant human Siglec-9-Fc was then immobilized for 120 seconds followed by a 30 second baseline wash in fresh kinetics buffer, 120 second association of a first antibody (antibody “a”), 30 second wash, and then 120 second association of a competitor antibody (antibody “b”). All assay steps occurred at 30° C. with an acquisition rate of 5.0 Hz.
(§2) Binning results were calculated using ForteBio Data Analysis HT software. Antibody “a” and antibody “b” steps were defined, and the maximum binding calculation was averaged at the last 10% of the step duration. Once the matrix was generated the self-self interaction was subtracted and hierarchical clustering was set with a similarity metric of Pearson and Lingang Criteria by Mean and the maximum binding nm shift is reported in Table 7 below.

Compared with B1, B2 is higher in “maximum binding nm shift” value: 0.001 nm for the first, 0.003 nm for the second.

Compared with B3, B4 is lower in “maximum binding nm shift” value: 0.619 nm for the first, 0.352 nm for the second.

First: B5
Second: B6
The “maximum binding nm shift” value of the first is lower: 0.198 nm for the first, 0.399 nm for the second.

Target: T1, Human Siglec-9-Fc (recombinant human …)
Test: BLI binning, hSiglec-9-Fc on AHC sensor; competitor bound first (row): 3L02
Protocol: as §1, §2

Going from B1 to B2, the “maximum binding nm shift” value falls from 0.277 nm to 0.271 nm.

Compared with B3, B4 is lower in “maximum binding nm shift” value: 0.745 nm for the first, 0.463 nm for the second.

First: B5
Second: B6
The “maximum binding nm shift” value of the first is lower: 0.09 nm for the first, 0.472 nm for the second.

Target: T1, Human Siglec-9-Fc (recombinant human …)
Test: BLI binning, hSiglec-9-Fc on AHC sensor; competitor bound first (row): 9C15
Protocol: as §1, §2

Going from B1 to B2, the “maximum binding nm shift” value falls from 0.233 nm to 0.232 nm.

First: B3
Second: B4
The “maximum binding nm shift” value of the first is higher: 0.561 nm for the first, 0.03 nm for the second.

In the case of B5, the “maximum binding nm shift” value is reported as 0.231 nm.

Target: T1, Human Siglec-9-Fc (recombinant human …)
Test: BLI binning, hSiglec-9-Fc on AHC sensor; competitor bound first (row): 9D21
Protocol: as §1, §2

Compared with B1, B2 is higher in “maximum binding nm shift” value: 0.162 nm for the first, 0.163 nm for the second.

Going from B4 to B5, the “maximum binding nm shift” value falls from 0.349 nm to 0.263 nm.

B6 was tested, and the “maximum binding nm shift” value was 0.395 nm.

Target: T1, Human Siglec-9-Fc (recombinant human …)
Test: BLI binning, hSiglec-9-Fc on AHC sensor; competitor bound first (row): 12G23
Protocol: as §1, §2

Compared with B2, B3 is higher in “maximum binding nm shift” value: -0.016 nm for the first, 0.524 nm for the second.

First: B4
Second: B5
The “maximum binding nm shift” value of the first is higher: 0.439 nm for the first, 0.185 nm for the second.

For B6, the “maximum binding nm shift” value was 0.352 nm.

Target: T1, Human Siglec-9-Fc (recombinant human …)
Test: BLI binning, hSiglec-9-Fc on AHC sensor; competitor bound first (row): 12L19
Protocol: as §1, §2

First: B1
Second: B2
The “maximum binding nm shift” value of the first is higher: 0.263 nm for the first, 0.251 nm for the second.

First: B3
Second: B4
The “maximum binding nm shift” value of the first is higher: 0.73 nm for the first, 0.518 nm for the second.

With B6 the “maximum binding nm shift” value was 0.392 nm.

Target: T1, Human Siglec-9-Fc (recombinant human …)
Test: BLI binning, hSiglec-9-Fc on AHC sensor; competitor bound first (row): 12P18
Protocol: as §1, §2

Compared with B1, B2 is lower in “maximum binding nm shift” value: 0.231 nm for the first, 0.228 nm for the second.

First: B3
Second: B5
The “maximum binding nm shift” value of the first is higher: 0.658 nm for the first, 0.379 nm for the second.

With B6 the “maximum binding nm shift” value was 0.003 nm.

Target: T1, Human Siglec-9-Fc (recombinant human …)
Test: BLI binning, hSiglec-9-Fc on AHC sensor; competitor bound first (row): 13J19
Protocol: as §1, §2

Compared with B1, B2 is lower in “maximum binding nm shift” value: 0.139 nm for the first, 0.135 nm for the second.

Compared with B3, B4 is higher in “maximum binding nm shift” value: -0.022 nm for the first, 0.324 nm for the second.

Going from B5 to B6, the “maximum binding nm shift” value rises from 0.175 nm to 0.282 nm.

Target: T1, Human Siglec-9-Fc (recombinant human …)
Test: BLI binning, hSiglec-9-Fc on AHC sensor; competitor bound first (row): 13O18
Protocol: as §1, §2

Going from B1 to B3, the “maximum binding nm shift” value rises from 0.011 nm to 0.495 nm.

Going from B4 to B5, the “maximum binding nm shift” value falls from 0.358 nm to 0.202 nm.

B6 was tested, and the “maximum binding nm shift” value was 0.392 nm.

Target: T1, Human Siglec-9-Fc (recombinant human …)
Test: BLI binning, hSiglec-9-Fc on AHC sensor; competitor bound first (row): 13H10 (printed 13H110)
Protocol: as §1, §2

Compared with B1, B2 is lower in “maximum binding nm shift” value: 0.242 nm for the first, 0.224 nm for the second.

Compared with B3, B4 is lower in “maximum binding nm shift” value: 0.686 nm for the first, 0.336 nm for the second.

Compared with B5, B6 is higher in “maximum binding nm shift” value: -0.02 nm for the first, 0.336 nm for the second.

Target: T2, Cyno SIGLEC9
T2 construct: also called cyno Siglec-9-Fc; Cynomolgus Monkey SIGLEC9-Fc
T2 sequence (Fc fusion chain, as listed by the source): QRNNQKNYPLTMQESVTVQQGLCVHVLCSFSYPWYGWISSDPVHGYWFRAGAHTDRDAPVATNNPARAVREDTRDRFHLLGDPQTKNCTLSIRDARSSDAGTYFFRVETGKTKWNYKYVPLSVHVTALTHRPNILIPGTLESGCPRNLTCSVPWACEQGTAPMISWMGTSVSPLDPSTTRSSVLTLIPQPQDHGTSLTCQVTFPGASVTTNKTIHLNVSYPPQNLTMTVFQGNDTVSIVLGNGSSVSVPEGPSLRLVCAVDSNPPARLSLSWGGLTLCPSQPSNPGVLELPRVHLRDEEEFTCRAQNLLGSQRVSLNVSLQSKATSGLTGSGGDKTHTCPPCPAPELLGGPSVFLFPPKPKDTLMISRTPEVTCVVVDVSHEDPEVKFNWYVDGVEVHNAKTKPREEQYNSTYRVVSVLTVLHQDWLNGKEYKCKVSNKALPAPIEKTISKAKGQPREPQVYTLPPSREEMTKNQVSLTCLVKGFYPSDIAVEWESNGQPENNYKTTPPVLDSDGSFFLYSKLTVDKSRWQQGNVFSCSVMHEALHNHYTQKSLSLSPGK
Test: ELISA: plate coated with 1 ug/mL cyno Siglec-9-Fc, antibody at 100 nM, HRP anti-mouse Fc secondary, RLU
Protocol: (§3) ELISA plates (384-well) were coated with 1 ug/mL indicated SIGLEC protein at room temperature. The plates were washed with PBS with 0.1% Tween®20, pH 7.4 and blocked with TBS containing 3% BSA. The plates were washed and incubated with anti-SIGLEC9 antibody diluted to 100 nM. Plates were washed and incubated with HRP-coupled anti-mouse Fc secondary antibody. Plates underwent a final wash and were incubated with HRP substrate. Readout was performed using a POLARstar Omega Microplate Reader (BMG LAPTECH).

B3: binds.
B4: no binding (tested: 100 nM).
B5: no binding (tested: 100 nM).

Target: T3, Human SIGLEC7
T3 construct: also called human Siglec-7-Fc
T3 sequence (Fc fusion chain, as listed by the source): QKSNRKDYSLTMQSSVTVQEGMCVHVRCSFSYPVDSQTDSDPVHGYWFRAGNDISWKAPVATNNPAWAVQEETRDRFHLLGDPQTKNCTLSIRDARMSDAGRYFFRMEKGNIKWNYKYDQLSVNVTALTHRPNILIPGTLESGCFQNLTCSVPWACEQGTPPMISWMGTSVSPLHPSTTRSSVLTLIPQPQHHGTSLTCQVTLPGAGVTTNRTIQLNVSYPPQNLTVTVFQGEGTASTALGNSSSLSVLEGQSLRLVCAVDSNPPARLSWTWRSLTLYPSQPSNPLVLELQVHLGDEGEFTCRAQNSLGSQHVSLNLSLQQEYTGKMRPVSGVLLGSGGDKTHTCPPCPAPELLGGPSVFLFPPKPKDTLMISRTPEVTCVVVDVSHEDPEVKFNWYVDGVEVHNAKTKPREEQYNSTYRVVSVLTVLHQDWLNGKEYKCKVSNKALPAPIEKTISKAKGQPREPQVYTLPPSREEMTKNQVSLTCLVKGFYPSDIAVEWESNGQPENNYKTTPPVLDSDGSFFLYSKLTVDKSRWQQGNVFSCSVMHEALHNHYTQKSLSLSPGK
Test: ELISA: plate coated with 1 ug/mL human Siglec-7-Fc, antibody at 100 nM, HRP anti-mouse Fc secondary, RLU
Protocol: as §3

B7: no binding (tested: 100 nM).
B3: binds.
B4: no binding (tested: 100 nM).
B5: no binding (tested: 100 nM).
